The record followed here is PMC8229645.

In assay [1] the target is Human astrovirus 2 capsid spike (Spike 2) (human astrovirus serotype 2). The assay is described as follows: SEC. On the technique in general: In gel filtration, larger molecules generally elute earlier.
Assay [2] addresses Human astrovirus 6 capsid spike (Spike 6) (human astrovirus serotype 6). Description: SEC.

With “Human astrovirus 2 capsid spike (Spike 2) (domain or fragment)”, the stoichiometry N (as a rule, a count of units in the complex or per binding partner) in assay [1] was 2.
The substance “Human astrovirus 6 capsid spike (Spike 6) (domain or fragment)” gave a stoichiometry N in assay [2] of 2.
